Key:
[1] = Quantum yield determination; format: physicochemical; settings: for Quant. Yield: Table 5, in PBS
Protocol: Quantum yields were determined as described in Demas et al., “Measurement of photoluminescence quantum yields. Review”, Journal of Physical Chemistry 75, 991-1024 (1971), and Shao et al., “Facile Synthesis of Monofunctional Pentamethine Carbocyanine Fluorophores. Dyes and pigments: an international journal 90, 119-122 (2011). For IR-783 a reference quantum yield of 0.043 was used (see Li et al., “Synthesis and characterization of glucosamine-bound near-infrared probes for optical imaging”, Organic letters 8, 3623-3626, 2006); for fluorescein a reference quantum yield was […] (see Sjoback et al., “Absorption and florescence properties of fluorescein”, Spectrohimica Acta Part A 51, L7-L21, 1995). For Cy3 a reference quantum yield of 0.31 was used (Luminprobe Inc). For PN(783)'s, excitation was at 730 nm and emission spectra were recorded from 765 nm to 870 nm in PBS and maximum emission used. For PN(545)'s, excitation was at 515 nm and emission spectra were recorded from 538 nm to 700 nm in PBS and maximum emission used. For PN(497)'s, excitation was at 450 nm and emission spectra were recorded from 475 nm to 620 nm in PBS and maximum emission used. Absorbance of each probe was adjusted less than 0.1. Measurements were made in triplicate and are expressed as mean±SD.

[2] = PN and peptide size (volume, diameter) by FPLC gel filtration (Superdex 200, globular protein standards); format: physicochemical; settings: for diameter: FPLC gel filtration; for Volume FPLC / Volume FPLC (diameter): Table 5; for Volume FPLC: globular protein equivalent molecular weight; for Molecular Volume: Table 3C, proposed Example 4 compounds; for Molecular Volume FPLC: Table 3B, dipeptides; for Volume FPLC (diameter): converted from globular protein equivalent MW
Protocol: DOTA-Lys-Cys(IR783)-NH2 is then dissolved in DMSO, with 2 equivalents of an NHS ester of PEG and 6 equivalents of DIPEA. The reaction was at room temperature for 5 days. Product was purified by reverse phase HPLC separation. Product molecular weight was by matrix-assisted laser desorption ionization time-of-flight mass spectrometry (MALDI-TOF MS), with product molecular volume by size exclusion FPLC using globular protein standards (GE Healthcare life science AKTApurifier 10).
The mass spec of low molecular weights (MW) were obtained by MS-ESI Micromass (Waters) and high MW molecules were determined through MALDI-TOF analyses at the Tufts University Core Facility. RP-HPLC (Varian ProStar detector and delivery modules) employed an eluant A (0.1% TFA/water) and eluant B (0.1% TFA and 9.9% water in acetonitrile). Probe size (volume) was determined by FPLC using an ÄKTA Purifier 10 and Superdex™ 200 10/300GL column (GE Healthcare) with a running buffer of 0.05 M sodium phosphate, 0.15 M NaCl (0.1% Tween, pH 7.2) and flow rate of 0.8 ml/min. Standards (GE Healthcare) were Ferritin, Ribonuclease A, Carbonic Anhydrase, and Conalbumin and Blue Dextran 2000. To obtain probe volumes, Mr (apparent molecular weight based on size exclusion retention) was plotted versus Kav. Kav=(Ve−Vo)/(Vt−Vo), Vt=total volume, Ve=elution volume, Vo=void volume.
The column was calibrated with globular protein standards, and globular protein equivalent molecular weights (in kDa) were obtained (Table 5, column 5). These were converted to PN diameters in nm using the relationship: Radius in nm=[…] where M is the molecular weight of a globular protein expressed in daltons (see Erickson, “Size and Shape of Protein Molecules at the Nanometer Level Determined by Sedimentation, Gel Filtration, and Electron Microscopy”, Biological Procedures Online 2009, 11(1): 32-50). PN's diameters ranged from 3.0 to 11.8 nm (see FIG. 23a). Using PEG's of 5 kDa and 30 kDa, selected for their low polydispersity, PN's were synthesized using IR-783, Cy3 and Fluorescein (see FIG. 22a) and their sizes determined (see FIGS. 23a, 23b, 23c). With the 5 kDa PEG and these three fluorochromes (see the magenta chromatograms in FIGS. 22a, 23b and 23c) PN diameters were 4.3 nm. With the 30 kDa PEG and these three fluorochromes (blue chromatograms, 23a, 23b, 23c), PN diameters were now 10.0 nm. For reference, the diameter of a 67 kDa albumin determined by this method was 5.4 nm.

[3] = system: HT-29, a human colon carcinoma cell line; test: PN and peptide binding to cells (non-specific binding, FACS); format: cell-based; settings: HT-29 cells; for Cell NSB (percent of cells with fluorescence higher than unstained cell): 30 min at 37° C., FACS
Protocol: HT-29, a human colon carcinoma cell line, was from the American Tissue Culture Collection and maintained according to their instructions. Cells were seeded on 24-well plates at 5×10^5 cells/well in culture medium (RPMI 1640 with 10% FBS) the day before the assay. The day of assay, medium was removed, wells rinsed twice with DPBS (+Ca, +Mg), and 100 μl of 2% FBS/DPBS (+Ca, +Mg) added. 100 μL of Nanoprobes (2 μM) in DPBS (+Ca, +Mg) was added to cells and incubated for 30 min at 37° C. (Probe concentrations were determined spectrophotometrically (783 nm, extinction coefficient of 314 471 cm^−1 M^−1 for IR-783; 497 nm, extinction coefficient of 68 000 cm^−1 M^−1 for Fluorescein; 545 nm, extinction coefficient of 150 000 cm^−1 M^−1 for Cy3). Cells were detached by Trypsin/EDTA and assayed for fluorescence by FACS (BD 7 laser LSR2 for nanoprobes with IR-783; BD 3 laser LSR2 for nanoprobes with Fluorescein or Cy3).

[4] = Probe volume determination by FPLC (Superdex 75, globular protein standards); format: physicochemical
Protocol: Size (volume) was determined by FPLC using an ÄKTA Purifier 10 and Superdex™ 75 10/300 GL column (GE Healthcare Lifesciences) with a running buffer of 0.05 M sodium phosphate, 0.15 M NaCl (0.1% Tween, pH 7.2) and flow rate of 0.5 ml/min. The protein standards (Gel Filtration Calibration Kit LMW, code no. 28-4038-41, GE Healthcare) (0.3 mg/ml, mixture of Aprotinin, Ribonuclease A, Ovalbumin, and Conalbumin) and Blue Dextran 2000 were used. To obtain volumes, Mr (apparent molecular weight based on size exclusion retention) was plotted versus Kav. Kav=(Ve−Vo)/[…], Vt=total volume, Ve=elution volume, Vo=void volume.

[5] = system: GFP expressing BT-20 breast carcinoma xenograft; test: Tumor surface fluorescence after peritumoral (DMR) or IV injection; format: in vivo, mouse
Protocol: Day 1, BT-20 cells were planted into 24-well plate at 750,000 cells/well in culture medium (EMEM with 10% FBS). Day 2, the old culture medium was replaced with new culture medium containing lenti-virus (1×10^8 particles/mL) and protamine sulphate (American Pharmaceutical Partners, Los Angelus, Calif.; 10 mg/mL; 1:500 of total volume of medium). Day 3, after 16 hours of transfection, medium was changed to the culture medium (EMEM with 10% FBS). 8 hours later, green cells could be seen via fluorescence microscope.
All animal experiments were approved by the Institutional Review Committee of Massachusetts General Hospital. Female nude mice (25-30 g; 6-8 weeks old; nu/nu; Cox 7, Massachusetts General Hospital, Boston, Mass.) were anesthetized with isoflurane/O2. Tumor cell implantation was performed both sides around the shoulder. 200 μl of cell suspension containing 10^6 cells in Matrigel (BD) was injected subcutaneously. Tumor cells were inoculated for 7 to 10 days.
The diffusion and molecular retention required of the DMR technique with a tumor bearing model were investigated. We peritumorally injected the RGD probe into an animal bearing two GFP expressing BT-20 breast carcinomas and monitored tumor GFP fluorescence and probe fluorescence as a function of time after injection. The non-integrin binding RAD probe was injected into a second animal also bearing two tumors. Overlaying purple probe fluorescence over green GFP yields white. […] Tumor surface fluorescence from both probes was quantified by the use of solution standards.
In FIG. 8a), two animals bearing two tumors were PT injected with the RGD probe or RAD probe as indicated and surface fluorescence images were obtained. […] In FIG. 8b), quantitation of tumor surface fluorescence after injections of the RGD or RAD probes as above. Surface fluorescence was quantified through the use of standard solutions.
To compare the DMR and intravenous (IV) methods, surface fluorescence images of tumor GFP and RGD probe fluorescence were obtained with skin removed, and overlays from the two signals obtained. With both DMR and IV administration, probe fluorescence extended beyond tumor GFP margins to a stromal area beyond the tumor. However, tumor fluorescence was far higher with DMR than IV injection, even though dose was far lower (50 pmoles/mouse by DMR versus 2000 pmoles/mouse by IV).
In FIG. 9a), skin covering GFP-BT-20 tumor was removed. Shown are visible GFP fluorescence, probe (CyAL5.5) fluorescence, and the overlay of GFP and probe fluorescence plus an X-ray image. Green GFP plus purple CyAL5.5 fluorescence yielded a white overlaid image. In FIG. 9b), with DMR or IV, probe fluorescence included a stromal zone of integrin binding surrounding the tumor was seen. […]

[6] = Table 3A, CyAL5.5 tetrapeptides
[7] = Table 3C, proposed Example 4 compounds

With (DOTA)Lys(PEG5K)-Cys(FI) [PN(497)4.3] as the compound, how does the “Quant. Yield” value [1] read?
Its value is 0.59.

What about the diameter [2] of the same compound?
Its diameter is 4.3 nm.

And the “Volume FPLC” value [2]?
The value was 35 kDa.

What about the “Cell NSB (percent of cells with fluorescence higher than unstained cell)” value [3] of the same compound?
Its value is 0.2%.

What does the source list for (DOTA)Lys(PEG5K)-Cys(Cy3) [PN(545)4.3]?
Quant. Yield [1]: 0.59; diameter [2]: 4.3 nm; Volume FPLC [2]: 35 kDa; Cell NSB (percent of cells with fluorescence higher than unstained cell) [3]: 31%

Which “Molecular Volume” value ([4]; Table 3A, tetrapeptides) does the source give for “DOTA-Lys(CyAL5.5)-Lys(NH2)-β-Ala-Lys(N3) [Compound 5a]” here?
The value was <1 kDa.

What about the “Quantum Yield” value [1, 6] of the same compound?
Its value is 0.061.

Which results are given for NH2-Cys(IR-783)-OH?
Quantum Yield [1, 7]: <0.10; Molecular Volume [2]: <2 kDa

For “DOTA-Lys(CyAL5.5)-Lys(5 kDa PEG)- βAla -Lys(sPEG-RGD) [Compound 7a]”, which “Equiv. Vol.” value ([4]; FPLC, globular protein equivalent volume) is on record?
Its value is 25 kDa.

And the “Molecular Volume” value ([4]; Table 4, DMR probes)?
Its value is 20-30 kDa.

What about the “Quantum Yield” value ([1]; Table 4, DMR probes) of the same compound?
Its value is 0.20.

What about the “tumor retention of probe fluorescence after peritumoral injection” value ([5]; BT-20 tumors, 24 hours post injection) of the same compound?
The value was “retained by the tumor”.

What about the Tumor fluorescence ([5]; DMR, 50 pmoles/mouse) of the same compound?
Its Tumor fluorescence is 15.0 au.

And the Tumor fluorescence ([5]; IV, 2000 pmoles/mouse)?
Its Tumor fluorescence is 1.5 au.

With (DOTA)Lys-Cys(Cy3) as the compound, how does the “Quant. Yield” value [1] read?
Its value is 0.32.

What about the “Volume FPLC” value [2] of the same compound?
The value was 0.6 kDa.

And the “binding to cells (FACS, FIG. 30)” value [3]?
The value was “binds to cells”.

What about the “Cell NSB (percent of cells with fluorescence higher than unstained cell)” value [3] of the same compound?
The value was 98%.

What does the source list for “DOTA-Lys(CyAL5.5)-Lys(NH2)-β-Ala-Lys(N3-DBCO-PEG4-cRGD)-NH2 [Compound 6a]”?
Molecular Volume ([4]; Table 3A, tetrapeptides): <1 kDa; Quantum Yield [1, 6]: 0.082

With “DOTA-Lys(CyAL5.5)-Lys(5 kDa PEG)- βAla -Lys(N3)-NH2 [Compound 5b]” as the compound, how does the “Molecular Volume” value ([4]; Table 3A, tetrapeptides) read?
The value was <1 kDa.

And the “Quantum Yield” value [1, 6]?
Its value is 0.17.

What does the source list for (DOTA)Lys(PEG30K)-Cys(FI) [PN(497)10.0]?
Quant. Yield [1]: 0.60; Volume FPLC [2]: 435 kDa; Cell NSB (percent of cells with fluorescence higher than unstained cell) [3]: 0.1%

With (DOTA)Lys-Cys(IR-783) as the compound, how does the “Quantum Yield” value ([1]; Table 3B, IR-783 dipeptides) read?
Its value is 0.053.

And the “Quant. Yield” value [1]?
The value was 0.053.

And the diameter [2]?
The diameter was 1.1 nm.

What about the “Molecular Volume FPLC” value [2] of the same compound?
The value was 0.600 kDa.

And the “Volume FPLC (diameter)” value [2]?
The value was 1.10 nm.

What about the “Volume FPLC” value [2] of the same compound?
The value was 0.600 kDa.

What about the “binding to cells (FACS, FIG. 30)” value [3] of the same compound?
Its value is “binds cells”.

And the “Cell NSB (percent of cells with fluorescence higher than unstained cell)” value [3]?
The value was 95%.

With CC1(C)C(/C=C/C=C/C=C/C=C2/N(CCCCS(=O)(=O)O)c3ccc4ccccc4c3C2(C)C)=[N+](CCCCS(=O)(=O)O)c2ccc3ccccc3c21 [ICG, Indocyanine green, reference compound] as the compound, how does the “Quantum Yield” value ([1]; Table 3B, IR-783 dipeptides) read?
The value was 0.041.

Which “Molecular Volume” value ([4]; Table 3A, tetrapeptides) does the source give for “DOTA-Lys(CyAL5.5)-Lys- βala -Lys(sPEG-RAD) [Compound 6b]” here?
Its value is <1 kDa.

And the “Quantum Yield” value [1, 6]?
Its value is 0.081.

Which results are given for “(DOTA)Lys-Cys(Fluorescein) [(DOTA)Lys-Cys(FI)]”?
Quant. Yield [1]: 0.50; binding to cells (FACS, FIG. 30) [3]: binds cells very weakly; Cell NSB (percent of cells with fluorescence higher than unstained cell) [3]: 0.4%

Which “Quantum Yield” value ([1]; Table 3B, IR-783 dipeptides) does the source give for “(DOTA)Lys(PEG40K)-Cys(IR-783) [PN(783)11.7]” here?
Its value is 0.18.

And the “Quant. Yield” value [1]?
The value was 0.16.

And the “Molecular Volume FPLC” value [2]?
The value was 690 kDa.

What about the “Volume FPLC (diameter)” value [2] of the same compound?
Its value is 11.7 nm.

And the “Volume FPLC” value [2]?
The value was 690 kDa.

Which “Molecular Volume” value [2] does the source give for 5 kDa PEG-Cys(IR-783)-OH here?
The value was >20 kDa.

With DOTA-Lys(PEG 40 kDa)-Cys(Fl)-NH2 as the compound, how does the “Quantum Yield” value [1, 7] read?
The value was 0.60.

And the “Molecular Volume” value [2]?
Its value is 690 kDa.
